Reference: paper doi:10.1101/2020.05.22.111005 (bioRxiv, 2020)

B1: COV2-2165 (human mAb) (antibody, V domains shown)
VH: EVQLVESGGGLVQPGGSLRLSCAASGLTVRSNYMTWVRQTPGKGLEWVSVIYSGGSTFYADSVKGRFTISRDNSKNTVYLQMNSLRAEDTAVYYCARDLVTYGLDVWGQGTTVTVSS
VL: DIQLTQSPSFLSASVGDRVTITCRASQGISNYLAWYQQKPGTAPNLLIYAASTLQSGVPSRFSGSGSGTEFTLTISSLQPEDFATYYCQLLNSHPLTFGQGTRLEIK
B2: Fab COV2-2165 (Fab, V domains shown)
VH: B1 VH
VL: B1 VL
B3: COV2-2196 (human mAb) (antibody, V domains shown)
VH: QMQLVQSGPEVKKPGTSVKVSCKASGFTFMSSAVQWVRQARGQRLEWIGWIVIGSGNTNYAQKFQERVTITRDMSTSTAYMELSSLRSEDTAVYYCAAPYCSSISCNDGFDIWGQGTMVTVSS
VL: not shown
B4: Fab COV2-2196 (Fab, V domains shown)
VH: B3 VH
VL: not shown

Experiments:
[1] = target: SARS-CoV-2 S receptor-binding domain (SRBD), monomeric, wild type (SARS-CoV-2, Wuhan-Hu-1 reference spike, UniProt P0DTC2); assay: BLI
[2] = target: T1, prefusion-stabilized trimeric SARS-CoV-2 S protein ectodomain (S2Pecto) (SARS-CoV-2, Wuhan-Hu-1 reference spike, UniProt P0DTC2, stabilised); assay: negative-stain electron microscopy
[3] = target: T1, prefusion-stabilized trimeric …; assay: ELISA

Binder	binding result [1]	binding result [2]	binding result [3]
B1	binds	–	–
B2	–	binds	–
B3	binds	–	binds
B4	–	binds	–
